Laboratory results from patent US8460664 (ACADEMIA SINICA, dated 2013).

T1: P1 peptide (human)
T1 construct: Synthetic peptide
T1 peptide: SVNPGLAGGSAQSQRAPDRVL

T2: P3 peptide (human)
T2 peptide: GAGRADWPGPPELDV


Experiments:
[1] = molecular target: mIgE.FcL on transfected Ramos cells (human, UniProt P01854 104-546, limits assumed); test: cell-based or functional assay
P1 peptide = molecular target: T1, P1 peptide; test: ELISA, 1 µg/ml antibody on coated peptide (500 ng/well)
Protocol: (§1) To explore the specificity of anti-CεmX mAbs to CεmX, the various CεmX-specific clones were then tested for reactivity with 3 synthetic peptides, representing 3 consecutive segments of CεmX, divided by a C residue located at residue #18 and a CHC segment at residues #39-41. Specifically, P1 peptide contains the last 4 amino acid residues of CH4 of Mε and first 17 amino acid residues (#1-17), namely, […] (SEQ ID NO:2), of CεmX; P2 peptide contains 20 amino acid residues #19-38, namely, […] (SEQ ID NO:3), of CεmX; P3 peptide contains the terminal 11 amino acid residues (#42-52), namely, […]_(SEQ ID NO:4), of CεmX and first 4 amino acid residues of the consecutive migis region, namely, the N-terminal extracellular region of the membrane anchor peptide of Mε chain. All peptides were synthesized at Genomics Research Center, Academia Sinica (Taipei, Taiwan). The peptides were reconstituted with PBS at a concentration of 10 mg/ml. All peptides were coated on 96-well MaxiSorp plates at 500 ng/well in 0.1M NaCO_3 (pH 9.6) at 4° C. overnight. Coated wells were blocked by 200 μl/well of 1% BSA in PBS at room temperature for 1 hour. Plates were washed three times with 200 μl/well of PBS with 0.05% Tween-20, followed by adding 100 μl of 1 μg/ml anti-CεmX mAbs to wells.

P3 peptide = molecular target: T2, P3 peptide; test: ELISA on coated peptide (500 ng/well)
Protocol: as §1

[2] = molecular target: T3, mIgE.FcS on transfected CHO cells (human, UniProt P01854-3 104-494, limits assumed); test: flow cytometry, hybridoma supernatants
T3 construct: domain: CH2 domain through the cytoplasmic end of mεS (CH2-CM), on cells; Lacks the CεmX domain; No coreceptors are present in CHO cells; also called CHO cells expressing mIgE.FcS; mεS(CH2-CM)
Source text: (§2) We further tested the ability of various CεmX-specific monoclonal antibodies to bind to CHO and Ramos cell lines that were transfected with either recombinant DNA encoding mε_{L(CH2-CM)} or mε_{S(CH2-CM)}. […] The transfected two Ramos cell lines respectively produced mIgE.Fc_L or mIgE.Fc_S, both of which form complexes with their native coreceptors. To investigate the binding of anti-CεmX mAbs to native CεmX, CHO or Ramos cells expressing mIgE.Fc_L or mIgE.Fc_S were resuspended in FACS buffer [PBS, 1% FBS, 0.1% sodium azide, and 2 mM EDTA (pH 8.0)] at a cell density of 10^7 cells/ml. 10^6 cells were then incubated for 30 min on ice with 100 μl of hybridoma supernatants, followed by washing with FACS buffer. Bound antibodies were detected by incubation for 30 minutes on ice with FITC-labeled rabbit F(ab')_2 fragment specific for mouse IgG (AbD Secrotec), followed by washing twice with FACS buffer prior to analysis. Flow cytometry experiments were performed using a FACSCanto II flow cytometer (BD Bioscience) and analyzed using FCSExpress software (De Novo Software).

[3] = molecular target: T4, mIgE.FcS on transfected Ramos cells (human, UniProt P01854-3 104-494, limits assumed); test: flow cytometry, hybridoma supernatants
T4 construct: domain: CH2 domain through the cytoplasmic end of mεS (CH2-CM), on cells; Lacks the CεmX domain; It forms complexes with the native coreceptors of Ramos cells; also called Ramos cells expressing mIgE.FcS; mεS(CH2-CM)
T4 sequence (P01854 other isoform, or with tags, fused parts or gaps limits assumed): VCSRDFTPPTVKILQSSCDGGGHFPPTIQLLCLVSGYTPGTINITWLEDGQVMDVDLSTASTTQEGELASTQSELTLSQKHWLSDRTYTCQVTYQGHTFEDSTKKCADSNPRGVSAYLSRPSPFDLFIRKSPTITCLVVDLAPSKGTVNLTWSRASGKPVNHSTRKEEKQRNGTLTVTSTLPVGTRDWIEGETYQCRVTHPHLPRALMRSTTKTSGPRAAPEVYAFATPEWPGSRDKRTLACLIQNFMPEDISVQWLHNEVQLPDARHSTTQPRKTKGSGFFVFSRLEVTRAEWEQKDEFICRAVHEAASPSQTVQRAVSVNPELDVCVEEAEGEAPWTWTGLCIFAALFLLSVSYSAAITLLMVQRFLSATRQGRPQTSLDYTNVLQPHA
Source text: as §2

T3 sequence (P01854 other isoform, or with tags, fused parts or gaps limits assumed): as above
Chain of mIgE.FcL on transfected Ramos cells (P01854 104-546 limits assumed): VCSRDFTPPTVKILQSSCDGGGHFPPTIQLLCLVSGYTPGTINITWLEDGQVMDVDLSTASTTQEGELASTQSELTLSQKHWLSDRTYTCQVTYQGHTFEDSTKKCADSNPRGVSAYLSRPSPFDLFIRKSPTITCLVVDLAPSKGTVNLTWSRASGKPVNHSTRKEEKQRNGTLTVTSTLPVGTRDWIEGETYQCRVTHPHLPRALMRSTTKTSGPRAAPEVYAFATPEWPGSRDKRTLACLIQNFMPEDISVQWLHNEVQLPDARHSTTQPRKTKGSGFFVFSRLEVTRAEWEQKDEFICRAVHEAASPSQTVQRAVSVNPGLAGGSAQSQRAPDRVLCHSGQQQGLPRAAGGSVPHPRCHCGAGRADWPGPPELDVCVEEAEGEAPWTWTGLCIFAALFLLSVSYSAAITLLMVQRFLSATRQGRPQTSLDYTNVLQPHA

Row | Binder | ADCC, specific lysis at an E/T ratio of 50 (antibody 1 µg/ml, PBMC effectors) [1] [%] | binding result (P1 peptide) | binding result (P3 peptide) | binding result [2] | binding result [3]
1 | chimeric 4B12 (antibody, V domains shown) VH: DVQLQESGPGLVKPSQSLSLTCTVTGYSITSDYAWNWIRQFPGNKLEWMGSISYSGITGYNPSLKSRISVTRDTSKNQFFLQLNSVTTEDTATYYCARMGYDGLAYWGHGTTVTVSA VL: DVLMTQTPLSLPVSLGDQASISCRSSQSIVHSNGNTYLEWYLQKPGQSPKLLIYKVSNRFSGVPDRFSGSGSGTDFTFKISRVEAEDLGVYYCFQGSHVPPTFGGGTKLEIKR | ≤ 60 |  |  |  | 
2 | mouse monoclonal antibody 4B12 (antibody, V domains shown, Mouse hybridoma IgG, detected with anti-mouse IgG; also called parental mouse 4B12) VH: DVQLQESGPGLVKPSQSLSLTCTVTGYSITSDYAWNWIRQFPGNKLEWMGSISYSGITGYNPSLKSRISVTRDTSKNQFFLQLNSVTTEDTATYYCARMGYDGLAYWGHGTTVTVSA VL: DVLMTQTPLSLPVSLGDQASISCRSSQSIVHSNGNTYLEWYLQKPGQSPKLLIYKVSNRFSGVPDRFSGSGSGTDFTFKISRVEAEDLGVYYCFQGSHVPPTFGGGTKLEIKR |  | binds | no binding (tested: 1 µg/ml) | no binding | no binding
